The target in one data set is T1, TvG6PD::6PGL (Trichomonas vaginalis, UniProt A2EC78).
T1 construct: gene TVAG_414060; full-length fused protein, 716 aa, G6PD N-terminal (1-483) and 6PGL C-terminal, 81,692 Da; pET3a-HisTEV, N-terminal His6 tag removed by TEV protease; E. coli BL21(DE3) zwf-deleted; native tetramer
T1 sequence (A2EC78 1-716): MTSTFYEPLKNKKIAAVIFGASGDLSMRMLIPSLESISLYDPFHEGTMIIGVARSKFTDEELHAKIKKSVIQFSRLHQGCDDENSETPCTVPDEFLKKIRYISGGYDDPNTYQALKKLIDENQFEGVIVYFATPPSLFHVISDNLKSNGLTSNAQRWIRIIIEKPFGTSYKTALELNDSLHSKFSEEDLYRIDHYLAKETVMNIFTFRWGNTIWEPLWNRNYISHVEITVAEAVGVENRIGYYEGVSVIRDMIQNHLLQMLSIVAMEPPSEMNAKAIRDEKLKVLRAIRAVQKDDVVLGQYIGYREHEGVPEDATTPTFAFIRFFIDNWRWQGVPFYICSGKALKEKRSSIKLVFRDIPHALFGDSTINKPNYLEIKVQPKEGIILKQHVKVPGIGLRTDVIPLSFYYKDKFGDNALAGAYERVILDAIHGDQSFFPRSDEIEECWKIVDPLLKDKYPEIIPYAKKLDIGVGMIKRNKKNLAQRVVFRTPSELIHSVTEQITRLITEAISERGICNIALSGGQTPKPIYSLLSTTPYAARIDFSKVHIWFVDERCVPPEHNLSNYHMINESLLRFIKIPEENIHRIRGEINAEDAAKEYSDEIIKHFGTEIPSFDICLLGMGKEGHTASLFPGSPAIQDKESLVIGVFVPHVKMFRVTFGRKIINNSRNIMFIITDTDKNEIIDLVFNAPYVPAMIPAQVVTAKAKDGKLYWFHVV
Kind of data set: intrinsic tryptophan fluorescence quenching titration, excitation […] nm. Format: binding.

The target in data set [1] is fused glucose-6-phosphate dehydrogenase-phosphogluconolactonase protein from Trichomonas vaginalis (TvG6PD::6PGL) (Trichomonas vaginalis). The experiment in a line: SEC; Sephacryl 400 (16/60) gel filtration column, 50 mM phosphate buffer pH 7.35, flow 0.3 mL/min, calibrated with Bio-Rad gel filtration standards; single peak at 59.9 mL; no monomer, dimer or larger aggregates seen.

Substrate in data set [2]: NC(=O)c1ccc[n+]([C@@H]2O[C@H](COP(=O)(O)OP(=O)(O)OC[C@H]3O[C@@H](n4cnc5c(N)ncnc54)[C@H](OP(=O)(O)O)[C@@H]3O)[C@@H](O)[C@H]2O)c1
The experiment in a line: purified protein. It counts as biochemical, Trichomonas vaginalis. The following applies: G6P fixed at 1 mM, pH 8.0, apparent Km, catalytic site.

Substrate in data set [3]: O=P(O)(O)OC[C@H]1OC(O)[C@H](O)[C@@H](O)[C@@H]1O
Kind of data set: purified protein. Format: biochemical, Trichomonas vaginalis. The following applies: NADP+ fixed at 150 uM, pH 8.0, apparent Km.

`NC(=O)c1ccc[n+]([C@@H]2O[C@H](COP(=O)(O)OP(=O)(O)OC[C@H]3O[C@@H](n4cnc5c(N)ncnc54)[C@H](OP(=O)(O)O)[C@@H]3O)[C@@H](O)[C@H]2O)c1` [NADP^+] displayed a Kd at TvG6PD::6PGL of 31 nM.
On to “fused glucose-6-phosphate dehydrogenase-phosphogluconolactonase protein from Trichomonas vaginalis (TvG6PD::6PGL) (enzyme)”, for which, in data set [1], the stoichiometry N is 4.

B1: TvG6PD::6PGL (Trichomonas vaginalis G3) (protein)
chain: MTSTFYEPLKNKKIAAVIFGASGDLSMRMLIPSLESISLYDPFHEGTMIIGVARSKFTDEELHAKIKKSVIQFSRLHQGCDDENSETPCTVPDEFLKKIRYISGGYDDPNTYQALKKLIDENQFEGVIVYFATPPSLFHVISDNLKSNGLTSNAQRWIRIIIEKPFGTSYKTALELNDSLHSKFSEEDLYRIDHYLAKETVMNIFTFRWGNTIWEPLWNRNYISHVEITVAEAVGVENRIGYYEGVSVIRDMIQNHLLQMLSIVAMEPPSEMNAKAIRDEKLKVLRAIRAVQKDDVVLGQYIGYREHEGVPEDATTPTFAFIRFFIDNWRWQGVPFYICSGKALKEKRSSIKLVFRDIPHALFGDSTINKPNYLEIKVQPKEGIILKQHVKVPGIGLRTDVIPLSFYYKDKFGDNALAGAYERVILDAIHGDQSFFPRSDEIEECWKIVDPLLKDKYPEIIPYAKKLDIGVGMIKRNKKNLAQRVVFRTPSELIHSVTEQITRLITEAISERGICNIALSGGQTPKPIYSLLSTTPYAARIDFSKVHIWFVDERCVPPEHNLSNYHMINESLLRFIKIPEENIHRIRGEINAEDAAKEYSDEIIKHFGTEIPSFDICLLGMGKEGHTASLFPGSPAIQDKESLVIGVFVPHVKMFRVTFGRKIINNSRNIMFIITDTDKNEIIDLVFNAPYVPAMIPAQVVTAKAKDGKLYWFHVV
notes: full-length fused protein, 716 aa, G6PD N-terminal (1-483) and 6PGL C-terminal, 81,692 Da; pET3a-HisTEV, N-terminal His6 tag removed by TEV protease; E. coli BL21(DE3) zwf-deleted; native tetramer
Regarding B1, in “purified protein [2]”, the Km came out at 27 µM and the kcat was determined as 147 s⁻¹. In “purified protein [3]”, the Km was 210 µM and the kcat came to 147 s⁻¹.

For the origin of these results see publication PMC7402283, “Characterizing the Fused TvG6PD::6PGL Protein from the Protozoan Trichomonas vaginalis, and Effects of the NADP^+ Molecule on Enzyme Stability” (International Journal of Molecular Sciences, 2020).
